This note sets out measurements from patent US5885797.

The experiment addresses E12.

B1: I-mfb (protein)
chain: MSQVSGQCPSRCDAPHGVPSAALDPAQTMSLLPGLEVARSTHPVEASSEEGFPEEAAPSMPHDSGLRAQQALNSIDLDVPTEAVTCQPQGNPQGCTPLLPNGSSHDHLSEPGSAGHAGNGALGGSKAHRKLQTHPSLGSQAGRKSRGSARSASQVPLQAQEGKAPAVRIHRQTASPTCCLRNAQLSGTALRSLRLESQGHRELNNKTLSQSNNKKPGVAAHAAIIPALTRPKQNCHDPSLLPGTHGVGKEF
In the case of B1, the Relative CAT Activity (%), p4R-TK-CAT, NIH3T3 worked out at 98.7%.

B2: I-mfa (protein)
chain: MSQVSGQCPSRCDAPHGVPSAALDPAQTMSLLPGLEVARSTHPVEASSEEGFPEEAAPSMPHDSGLRAQQALNSIDLDVPTEAVTCQPQGNPQGCTPLLPNGSSHDHLSEPGSAGHAGNGALGGSKAHRKLQTHPSLGSQAGRKSRGSARSASQVPLQAQEDCCVHCILSCLFCEFLTLCNILLDCATCGSCSSEDSCLCCCCCGSGECADCDLPCDLDCGIVDACCESADCLEICMECCGLCFSS
With B2, the Relative CAT Activity (%), p4R-TK-CAT, NIH3T3 was determined as 76.3%.

B3: I-mfc (protein)
chain: MSQVSGQCPSRCDAPHGVPSAALDPAQTMSLLPGLEVARSTHPVEASSEEGFPEEAAPSMPHDSGLRAQQALNSIDLDVPTEAVTCQPQGNPQGCTPLLPNGSSHDHLSEPGSAGHAGNGALGGSKAHRKLQTHPPQPPNRSAFRRVAWSPPRVTRNTASRAW
For B3, the Relative CAT Activity (%), p4R-TK-CAT, NIH3T3 was 93.8%.
